Article PMC6632053 (2019)
Bridge positions count the residues as written; N and C are the ends. Square brackets hold non-standard residues; d marks the D form. Primed or numbered codes have the meaning given here. R8 = C=CCCCCCC[C@@](C)(N)C(=O)O; S5 = C=CCCC[C@](C)(N)C(=O)O; Cba′ = not defined here

What was measured:
[1] = biological target: site-specific mono-biotinylated Mdm2 (human, biotin (site-specific, mono, by sortase-mediated ligation; site not stated)); test: SPR
human Mdm2 (1–125) = human Mdm2 (1–125) (human); test: ITC
Chain of human Mdm2 (1–125) (human) (chain, as listed by the source): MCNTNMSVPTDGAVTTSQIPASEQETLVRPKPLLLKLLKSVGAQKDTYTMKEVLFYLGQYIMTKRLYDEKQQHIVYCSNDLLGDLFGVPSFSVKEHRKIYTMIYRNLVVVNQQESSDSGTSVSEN

Chain of site-specific mono-biotinylated Mdm2 (human, biotin (site-specific, mono, by sortase-mediated ligation; site not stated)) (chain, as listed by the source): as above

B1: MP-292 (peptide)
chain: Ac-LTF[R8]EYWQL[Cba′][S5]SAA-NH2
modifications: staple 4-11; reading uncertain
Question: Which results are given for B1?
Answer: Kd [1]: 1.4 nM; Kd (human Mdm2 (1–125)): < 20 nM
